Laboratory results as given in PMC8651671.

T1: SerA (Achromobacter denitrificans, UniProt A0A3R9FY19)
T1 sequence (A0A3R9FY19 1-399): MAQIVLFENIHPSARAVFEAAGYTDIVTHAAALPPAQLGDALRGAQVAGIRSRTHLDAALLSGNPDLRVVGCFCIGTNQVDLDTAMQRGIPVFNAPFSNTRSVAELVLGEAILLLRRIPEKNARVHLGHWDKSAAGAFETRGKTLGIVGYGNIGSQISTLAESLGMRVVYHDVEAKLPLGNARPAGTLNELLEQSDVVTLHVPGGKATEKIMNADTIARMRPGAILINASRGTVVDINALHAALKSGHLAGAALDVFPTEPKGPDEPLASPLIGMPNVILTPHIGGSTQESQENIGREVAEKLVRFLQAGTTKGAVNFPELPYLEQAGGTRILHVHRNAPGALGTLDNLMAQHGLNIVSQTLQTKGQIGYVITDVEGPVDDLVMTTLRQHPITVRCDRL

T2: DhdR (GntR family regulator) (Achromobacter denitrificans NBRC 15125, UniProt A0A6N0JVZ6 1-238)
T2 sequence: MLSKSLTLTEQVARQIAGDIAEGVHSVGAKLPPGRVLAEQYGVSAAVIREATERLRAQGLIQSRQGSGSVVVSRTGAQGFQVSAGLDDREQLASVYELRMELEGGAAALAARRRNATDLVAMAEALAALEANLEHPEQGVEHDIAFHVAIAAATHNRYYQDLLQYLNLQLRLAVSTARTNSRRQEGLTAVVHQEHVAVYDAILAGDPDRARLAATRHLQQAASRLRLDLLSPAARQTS


Assays:
[1] = biological target: D-2-HG dehydrogenase (D2HGDH) of Achromobacter denitrificans NBRC 15125 (Achromobacter denitrificans NBRC 15125); experiment: SEC; Superdex 200 10/300 GL, 50 mM sodium phosphate, 150 mM NaCl, pH 7.2, 0.5 mL min^-1; native molecular weight against standard proteins, compared with SDS-PAGE
DhdR = biological target: T3, DhdR; experiment: ITC; also thermal shift (ΔTm […] °C), EMSA, AlphaScreen; type: binding, Achromobacter denitrificans
T3 construct: His6-tagged DhdR

SerA = biological target: T1, SerA; experiment: product of 2-KG reduction by purified enzyme; type: biochemical
[2] = biological target: D-2-hydroxyglutarate dehydrogenase regulator (DhdR) of Achromobacter denitrificans NBRC 15125 (Achromobacter denitrificans NBRC 15125); experiment: SEC; Superdex 200 10/300 GL, 50 mM sodium phosphate, 150 mM NaCl, pH 7.2, 0.5 mL min^-1; native molecular weight against standard proteins, compared with SDS-PAGE
WbpB = WbpB (Pseudomonas aeruginosa, UniProt G3XD23); experiment: HPLC product analysis, biosensor assay and bound-NADH oxidation with purified enzyme; type: biochemical
[3] = biological target: 3-phosphoglycerate dehydrogenase (SerA) of Achromobacter denitrificans NBRC 15125 (Achromobacter denitrificans NBRC 15125); experiment: SEC; Superdex 200 10/300 GL, 50 mM sodium phosphate, 150 mM NaCl, pH 7.2, 0.5 mL min^-1; native molecular weight against standard proteins, compared with SDS-PAGE
[4] = biological target: T2, DhdR (GntR family regulator); experiment: ITC; EMSA/footprint: 10 mM Tris-HCl pH 7.4, 50 mM KCl, 0.5 mM EDTA, 10% glycerol, 1 mM DTT, 30 C; ITC: 25 C, same buffer as FTS assays (composition not in material); settings: protein: recombinant; tags: His6 (pETDuet-1); chain copies: 2; blunt
[5] = biological target: T2, DhdR (GntR family regulator); experiment: ITC; Supplementary Table 4 prints 3.03; EMSA/footprint: 10 mM Tris-HCl pH 7.4, 50 mM KCl, 0.5 mM EDTA, 10% glycerol, 1 mM DTT, 30 C; ITC: 25 C, same buffer as FTS assays (composition not in material); settings: protein: recombinant; tags: His6 (pETDuet-1); chain copies: 2; blunt

Chain of WbpB (G3XD23 whole entry): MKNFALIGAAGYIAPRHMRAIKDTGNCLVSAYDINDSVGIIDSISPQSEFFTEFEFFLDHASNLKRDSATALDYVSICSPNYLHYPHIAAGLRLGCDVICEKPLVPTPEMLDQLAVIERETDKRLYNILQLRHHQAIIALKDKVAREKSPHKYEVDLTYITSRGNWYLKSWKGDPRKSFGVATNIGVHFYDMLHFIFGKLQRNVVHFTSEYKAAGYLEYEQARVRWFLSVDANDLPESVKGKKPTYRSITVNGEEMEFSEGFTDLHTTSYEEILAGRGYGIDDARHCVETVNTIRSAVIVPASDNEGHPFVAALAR

| Molecule | Kd [4] | further results |
| --- | --- | --- |
| D-2-HG dehydrogenase (D2HGDH) of Achromobacter denitrificans NBRC 15125 (enzyme) | – | stoichiometry N [1]: 2 |
| O=C(O)CC[C@@H](O)C(=O)O [D-2-HG] | – | Kd (DhdR): 1160 ± 160 nM; product of 2-KG reduction by purified enzyme (SerA): It was also able to reduce 2-KG to D-2-HG |
| D-2-hydroxyglutarate dehydrogenase regulator (DhdR) of Achromobacter denitrificans NBRC 15125 (natural protein) | – | stoichiometry N [2]: 2 |
| O=C(O)CCC(=O)C(=O)O [2-KG] | – | HPLC product analysis, biosensor assay and bound-NADH oxidation with purified en (WbpB): confirmed that WbpB also catalyzes the reduction of 2-KG to produce D-2-HG |
| 3-phosphoglycerate dehydrogenase (SerA) of Achromobacter denitrificans NBRC 15125 (enzyme) | – | stoichiometry N [3]: 4 |
| D4 (dhdO 4#) (dsDNA) DNA 1: AAAGTTCTCAGATAACCTGAAAAGTAG DNA 2: CTACTTTTCAGGTTATCTGAGAACTTT | 580 ± 90 nM | – |
| D9 (dhdO 9#) (dsDNA) DNA 1: AAATTTCTCAGATAACCTGAAAAGTAG DNA 2: CTACTTTTCAGGTTATCTGAGAAATTT | 3230 ± 1270 nM | – |
| D3 (dhdO 3#) (dsDNA) DNA 1: AAAGTGATCAGATAACCTGAAAAGTAG DNA 2: CTACTTTTCAGGTTATCTGATCACTTT | 1190 ± 250 nM | – |
| D7 (dhdO 7#) (dsDNA) DNA 1: AAATGTATCAGATAACCTGAAAAGTAG DNA 2: CTACTTTTCAGGTTATCTGATACATTT | 5810 ± 2150 nM | – |
| D5 (dhdO 5#) (dsDNA) DNA 1: AAAGTTAGCAGATAACCTGAAAAGTAG DNA 2: CTACTTTTCAGGTTATCTGCTAACTTT | 1140 ± 370 nM | – |
| D12 (dhdO 12#) (dsDNA) DNA 1: AAAGGGATCAGATAACCTGAAAAGTAG DNA 2: CTACTTTTCAGGTTATCTGATCCCTTT | 6250 ± 1820 nM | – |
| D11 (dhdO 11#) (dsDNA) DNA 1: AAATTTATAAGATAACCTGAAAAGTAG DNA 2: CTACTTTTCAGGTTATCTTATAAATTT | 3230 ± 1410 nM | – |
| D13 (dhdO 13#) (dsDNA) DNA 1: AAAGGTCTCAGATAACCTGAAAAGTAG DNA 2: CTACTTTTCAGGTTATCTGAGACCTTT | 2460 ± 510 nM | – |
| D8 (dhdO 8#) (dsDNA) DNA 1: AAATTGATCAGATAACCTGAAAAGTAG DNA 2: CTACTTTTCAGGTTATCTGATCAATTT | 4020 ± 920 nM | – |
| D1 (dhdO 1#) (dsDNA) DNA 1: AAATTTATCAGATAACCTGAAAAGTAG DNA 2: CTACTTTTCAGGTTATCTGATAAATTT | – | Kd [5]: 3.29 ± 0.72 µM |
| D2 (dhdO 2#) (dsDNA) DNA 1: AAAGGTATCAGATAACCTGAAAAGTAG DNA 2: CTACTTTTCAGGTTATCTGATACCTTT | 2670 ± 530 nM | – |
| D0 (dhdO 0#) (dsDNA) DNA 1: AAAGTTATCAGATAACCTGAAAAGTAG DNA 2: CTACTTTTCAGGTTATCTGATAACTTT | 640 ± 100 nM | – |
| D6 (dhdO 6#) (dsDNA) DNA 1: AAAGTTATAAGATAACCTGAAAAGTAG DNA 2: CTACTTTTCAGGTTATCTTATAACTTT | 730 ± 180 nM | – |
| D10 (dhdO 10#) (dsDNA) DNA 1: AAATTTAGCAGATAACCTGAAAAGTAG DNA 2: CTACTTTTCAGGTTATCTGCTAAATTT | – | binding result [4]: no binding |
